In article PMC2289762 (The Journal of Cell Biology, 1992):

Biological target: the molecule itself
Assay: cross-linking

B1: centromere protein B (CENP-B), full-size, from HeLa nuclei (natural protein)
chain: MGPKRRQLTFREKSRIIQEVEENPDLRKGEIARRFNIPPSTLSTILKNKRAILASERKYGVASTCRKTNKLSPYDKLEGLLIAWFQQIRAAGLPVKGIILKEKALRIAEELGMDDFTASNGWLDRFRRRHGVVSCSGVARARARNAAPRTPAAPASPAAVPSEGSGGSTTGWRAREEQPPSVAEGYASQDVFSATETSLWYDFLPDQAAGLCGGDGRPRQATQRLSVLLCANADGSEKLPPLVAGKSAKPRAGQAGLPCDYTANSKGGVTTQALAKYLKALDTRMAAESRRVLLLAGRLAAQSLDTSGLRHVQLAFFPPGTVHPLERGVVQQVKGHYRQAMLLKAMAALEGQDPSGLQLGLTEALHFVAAAWQAVEPSDIAACFREAGFGGGPNATITTSLKSEGEEEEEEEEEEEEEEGEGEEEEEEGEEEEEEGGEGEELGEEEEVEEEGDVDSDEEEEEDEESSSEGLEAEDWAQGVVEAGGSFGAYGAQEEAQCPTLHFLEGGEDSDSDSEEEDDEEEDDEDEDDDDDEEDGDEVPVPSFGEAMAYFAMVKRYLTSFPIDDRVQSHILHLEHDLVHVTRKNHARQAGVRGLGHQS
Q: For B1, which “stoichiometry N” value is on record?
A: The value was 2.
